Test results as given in patent publication US20250084152A1 (DUKE UNIVERSITY, published 2025).

Columns and labels:
[1] = molecular target: T1, B/MY04 N135R EHA2 (Influenza B virus B/Malaysia/2506/2004, UniProt P03461 374-538); test: ELISA, rIgG (FIG. 13)
T1 chain: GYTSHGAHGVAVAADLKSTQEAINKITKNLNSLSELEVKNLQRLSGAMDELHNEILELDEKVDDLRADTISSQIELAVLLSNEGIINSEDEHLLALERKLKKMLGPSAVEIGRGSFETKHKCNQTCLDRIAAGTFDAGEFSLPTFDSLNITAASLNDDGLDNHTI

[2] = molecular target: T1, B/MY04 N135R EHA2; test: ELISA, rIgG (FIG. 20A)

B1: C1_ID26079-156194 (antibody, V domains shown)
VH: QVQLVQSGAEVKKPGASVKVSCKASGYTFTGNYMHWVRQAPGQGLEWMGWINPDSGGTNYAQRFQGRVTMTRDTSISTAYMELSRLTSDDTAMYYCARVMLRSSGFDSWGQGTLVTVSS
VL: QSALIQPASVSGSPGQSITISCTGTSSDVGTYNLVSWYQQHPGKVPKLMIYEASERPSGVSNRFSGSKSGNTASLTISGLQAEDEADYYCCSYAGNSAWVFGGGTKLTVL
[1]
  binding result: no binding

B2: M94 (antibody, V domains shown)
VH: QVQLVESGAEVKRPGASVKVACKASEYRFAASYIHWVRQAPGQGLEWMGWINLNSGDTKSSQKFQGWVTLTRDTSINTVYMEMTNLKFDDTAIYYCAKIILGGGGLDVWGQGTTVTVSS
VL: QSVLTQPRSVSGSLGQSVTISCSGTSTDVGSYEFVSWYQHHPGKAPKLIIYDVSKRPSGVPDRFSGSKSGNTASLAVSGLQSDDEADYYCSSYADTSNTWVFGGGTKLTVL
[1]
  binding result: no binding

B3: 351-52 (antibody, V domains shown)
VH: QVQLAQSGAEVRKPGASVKVSCKASGYTFTDYYIHWVRQAPGQGLEWMGWINPDSGRTNYAQRFQGRVSMTSDTSISTAYMDLSRLRSDDTAVYFCAREGAHNYQHFDHWGQGTLVTVSA
VL: EIVLTQSPDTLSLSPGESATLFCRASQSVRSSYLAWYQQTPGQAPRLLIYGASSRATGIPDRFSGSGSGTDFTLTISRLEPEDFAVYYCQQFGRSSWTFGQGTKVEIK
[1]
  binding result: no binding

B4: S1V2-72 (antibody, V domains shown)
VH: QVQLVQSGAELKKPGASVKVSCKASGYTFTGNYIHWMRQVPGQGLEWMGWINPRTGDTHHAQKFQGRVDMTRDTSINTAYLELTRLESDDTALYYCARCVFATSQFDPWGQGTLVTVSS
VL: QSALTQPASVSGSPGQSITISCTGTNSDIGSHNLVSWYQQHPGKAPKVMIYDDSKRPSGVSNRFSGSKSGSTASLTISGLQSEDEADYYCCSYAGSSNWVFGGGTKLTLL
[2]
  binding result: no binding
